One molecule from patent US10654939 can be followed below.

For test [1], the target named is rhesus CD40 expressed on HEK293A cells (rhesus monkey). The test is described as follows: FACS, HEK293A/rhesusCD40 cells.
Test [2] deals with human CD40 expressed on cells (human) (UniProt P25942). The test is described as follows: FACS, HEK293A/humanCD40 cells.
Test [3] has as its target recombinant human CD40 (ECD)-his (human) (UniProt P25942). The test is described as follows: ELISA, hCD40(ECD)-his coated. (An ELISA detects its analyte on a solid surface through an enzyme-linked reagent.)
In test [4] the target is recombinant rhesus CD40 (ECD)-hFc (rhesus monkey). The test is described as follows: ELISA, rhCD40(ECD)-hFc coated.
recombinant rhesus CD40 (ECD)-hFc (rhesus monkey), sequence (P25942 other isoform, or with tags, fused parts or gaps): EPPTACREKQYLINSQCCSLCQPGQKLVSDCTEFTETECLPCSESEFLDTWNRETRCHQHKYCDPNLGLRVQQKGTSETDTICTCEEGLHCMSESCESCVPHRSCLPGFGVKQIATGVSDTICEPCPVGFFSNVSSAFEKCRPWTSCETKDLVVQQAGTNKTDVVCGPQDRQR
In test [5] the target is human CD40 expressed on cells (human) (UniProt P25942). The test is described as follows: cell-based or functional assay.
Test [6] deals with recombinant human CD40 (ECD)-his (human) (UniProt P25942). The test is described as follows: SPR (Biacore 8K), hCD40(ECD)-his coupled to chip, antibody injected. In general terms: In SPR one partner is held on a chip, and binding of the other changes the refractive index at the surface.
recombinant human CD40 (ECD)-his (human), sequence (P25942 21-193): as the sequence (P25942 other isoform, or with tags, fused parts or gaps) above, with S43G, R56H, L89W, M92T, S95A, P101L, L106S, R142H, Q172L counted along it

A word on the EC50: it is the concentration giving half of the maximal effect. Broadly, the Kd is the concentration at which binding is half-saturated. As usually defined, the koff is the first-order rate constant of dissociation. Usually kon stands for the second-order rate constant of association.

human CD40 expressed on cells (human), sequence (P25942 21-277 limits assumed): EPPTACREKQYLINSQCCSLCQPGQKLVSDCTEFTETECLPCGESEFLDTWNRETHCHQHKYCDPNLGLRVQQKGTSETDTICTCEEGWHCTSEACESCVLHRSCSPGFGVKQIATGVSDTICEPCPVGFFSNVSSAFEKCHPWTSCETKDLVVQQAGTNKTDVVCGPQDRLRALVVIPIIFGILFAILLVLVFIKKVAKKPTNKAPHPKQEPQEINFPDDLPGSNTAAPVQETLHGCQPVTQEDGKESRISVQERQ
rhesus CD40 expressed on HEK293A cells (rhesus monkey), sequence (P25942 other isoform, or with tags, fused parts or gaps limits assumed): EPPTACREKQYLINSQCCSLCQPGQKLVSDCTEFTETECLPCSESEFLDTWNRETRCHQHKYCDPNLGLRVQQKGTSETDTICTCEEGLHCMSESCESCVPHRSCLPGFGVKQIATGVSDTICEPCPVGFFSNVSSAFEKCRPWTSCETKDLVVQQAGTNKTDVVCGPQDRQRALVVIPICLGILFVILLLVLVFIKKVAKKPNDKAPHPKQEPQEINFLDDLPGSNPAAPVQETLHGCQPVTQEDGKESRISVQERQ

B1: ADC1013 (antibody, INN chains, looked up, V domains shown)
VH: EVQLLESGGGLVQPGGSLRLSCAASGFTFSTYGMHWVRQAPGKGLEWLSYISGGSSYIFYADSVRGRFTISRDNSENALYLQMNSLRAEDTAVYYCARILRGGSGMDLWGQGTLVTVSS
VL: QSVLTQPPSASGTPGQRVTISCTGSSSNIGAGYNVYWYQQLPGTAPKLLIYGNINRPSGVPDRFSGSKSGTSASLAISGLRSEDEADYYCAAWDKSISGLVFGGGTKLTVL
modifications: IgG1/kappa
Regarding B1, the EC50 amounted to 0.0673 µg/mL in test [1], 0.149 µg/mL in test [2], 0.024 µg/mL in test [3] and 0.0229 µg/mL in test [4]. The molecule also gave an HEK Blue EC50 in test [5] of 1030 ng/mL. In addition, in test [6], the Kd came out at 29 nM. For the same molecule, the dissociation rate constant (koff) in test [6] turned out to be 0.0348 s⁻¹. Further, the association rate constant (kon) in test [6] was found to be 1.2e+06 M⁻¹ s⁻¹.
